Test results published in patent US20240226163A1 (Regeneron, published 2024).

Tests used:
[1] = biological target: T1, HLA-A*02:01 presenting THBS3 116-125 peptide (…) (human); experiment: flow cytometry, peptide-pulsed T2 cells, 100 nM antibody
T1 construct: On peptide-pulsed T2 cells
Method: (§1) Samples were run on an IntelliCyt iQue flow cytometer (Intellicyt) and results were analyzed using Forecyte analysis software (Intellicyt) to calculate the mean fluorescent intensity (MFI) after gating for live cells. MFI values were plotted in Graphpad Prism using a four-parameter logistic equation over a 12-point response curve to calculate EC50 values. The secondary antibody alone (i.e., no primary antibody) for each dose-response curve was also included in the analysis as a continuation of the three-fold serial dilution and was represented as the lowest dose. The signal to noise (S/N) was determined by taking the ratio of the highest MFI on the dose response curve to the MFI in the secondary-alone wells.

[2] = biological target: T2, HLA-A*02:01 presenting PAPPA2 307-316 peptide (…) (human); experiment: as above
T2 construct: On peptide-pulsed T2 cells
Method: as §1

[3] = biological target: T3, HLA-A*02:01 presenting SCL25A19 111-120 peptide (…) (human); experiment: as above
T3 construct: On peptide-pulsed T2 cells
Method: as §1

[4] = biological target: T4, HLA-A*02:01 presenting FAT4 4053-4062 peptide (…) (human); experiment: as above
T4 construct: On peptide-pulsed T2 cells
Method: as §1

[5] = biological target: T5, HLA-A*02:01 presenting MAGE-A10 254-263 peptide (…) (human); experiment: as above
T5 construct: On peptide-pulsed T2 cells
Method: as §1

[6] = biological target: T6, HLA-A*02:01 presenting CCDC36 417-426 peptide (…) (human); experiment: as above
T6 construct: On peptide-pulsed T2 cells
Method: as §1

[7] = biological target: T7, HLA-A*02:01 presenting LPIN2 823-832 peptide (…) (human); experiment: as above
T7 construct: On peptide-pulsed T2 cells
Method: as §1

[8] = biological target: T8, HLA-A*02:01 presenting CELSR3 1594-1603 peptide (…) (human); experiment: as above
T8 construct: On peptide-pulsed T2 cells
Method: as §1

[9] = biological target: T9, HLA-A*02:01 presenting MAGE-A8 232-241 peptide (…) (human); experiment: as above
T9 construct: On peptide-pulsed T2 cells
Method: as §1

[10] = biological target: T10, HLA-A*02:01 presenting MAGE-A4 230-239 peptide (…) (human); experiment: as above
T10 construct: On peptide-pulsed T2 cells
Method: as §1

[11] = biological target: T10, HLA-A*02:01 presenting MAGE-A4 230-239 …; experiment: flow cytometry, peptide-pulsed T2 cells
Method: as §1

[12] = biological target: T1, HLA-A*02:01 presenting THBS3 116-125 …; experiment: flow cytometry, peptide-pulsed T2 cells
[13] = biological target: T2, HLA-A*02:01 presenting PAPPA2 307-316 …; experiment: flow cytometry, peptide-pulsed T2 cells
[14] = biological target: T3, HLA-A*02:01 presenting SCL25A19 111-120 …; experiment: flow cytometry, peptide-pulsed T2 cells
[15] = biological target: T4, HLA-A*02:01 presenting FAT4 4053-4062 …; experiment: flow cytometry, peptide-pulsed T2 cells
[16] = biological target: T5, HLA-A*02:01 presenting MAGE-A10 254-263 …; experiment: flow cytometry, peptide-pulsed T2 cells
[17] = biological target: T6, HLA-A*02:01 presenting CCDC36 417-426 …; experiment: flow cytometry, peptide-pulsed T2 cells
[18] = biological target: T7, HLA-A*02:01 presenting LPIN2 823-832 …; experiment: flow cytometry, peptide-pulsed T2 cells
[19] = biological target: T8, HLA-A*02:01 presenting CELSR3 1594-1603 …; experiment: flow cytometry, peptide-pulsed T2 cells

B1: mAbM34852N (antibody, V domains shown)
VH: EVQLLESGGGLVQPGGSLRLTCAASGFTFRSYAMSWVRQAPGKGLEWVSTISGNSDSTYYADSVKGRFTISRENSKNTLYLQMNSLRAEDTAVYYCAKDLHITMVRGAIPADVFDIWGQGTMVTVSS
VL: not shown
notes: Mouse constant region (detected with anti-mouse Fc secondary)
[1]
  Antibody Binding Ratio (pulsed cell MFI/Unpulsed cell MFI): 1
[2]
  Antibody Binding Ratio (pulsed cell MFI/Unpulsed cell MFI): 0.9
[3]
  Antibody Binding Ratio (pulsed cell MFI/Unpulsed cell MFI): 0.8
[4]
  Antibody Binding Ratio (pulsed cell MFI/Unpulsed cell MFI): 1
[5]
  Antibody Binding Ratio (pulsed cell MFI/Unpulsed cell MFI): 0.9
[6]
  Antibody Binding Ratio (pulsed cell MFI/Unpulsed cell MFI): 1
[7]
  Antibody Binding Ratio (pulsed cell MFI/Unpulsed cell MFI): 0.9
[8]
  Antibody Binding Ratio (pulsed cell MFI/Unpulsed cell MFI): 0.8
[9]
  Antibody Binding Ratio (pulsed cell MFI/Unpulsed cell MFI): 870
[10]
  Antibody Binding Ratio (pulsed cell MFI/Unpulsed cell MFI): 513
[11]
  EC50: 4.7 nM
[12]
  binding result: no binding (tested: 100 nM)
[13]
  binding result: no binding (tested: 100 nM)
[14]
  binding result: no binding (tested: 100 nM)
[15]
  binding result: no binding (tested: 100 nM)
[16]
  binding result: no binding (tested: 100 nM)
[17]
  binding result: no binding (tested: 100 nM)
[18]
  binding result: no binding (tested: 100 nM)
[19]
  binding result: no binding (tested: 100 nM)
